T1: cynomolgus CD3 (UniProt Q95LI5 22-198)
T1 chain: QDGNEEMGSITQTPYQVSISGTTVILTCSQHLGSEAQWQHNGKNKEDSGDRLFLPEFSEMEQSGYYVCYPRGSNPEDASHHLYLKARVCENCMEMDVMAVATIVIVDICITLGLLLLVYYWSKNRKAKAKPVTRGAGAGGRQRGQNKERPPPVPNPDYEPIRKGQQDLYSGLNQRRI


Legend:
human CD3 [1] = biological target: T2, human CD3 (UniProt P07766 22-207); test: FACS binding, Jurkat cells
cynomolgus CD3 [2] = biological target: T1, cynomolgus CD3; test: FACS binding, HSC-F cells
cynomolgus CD3 [3] = biological target: T1, cynomolgus CD3; test: FACS binding, HSC-F cells; Fig 2A
human CD3 [4] = biological target: T2, human CD3; test: FACS binding, Jurkat cells; Fig 1A
cynomolgus CD3 [5] = biological target: T1, cynomolgus CD3; test: FACS binding, HSC-F cells
human CD3 [6] = biological target: T2, human CD3; test: FACS binding, Jurkat cells; remark: listed apart in the source
human CD3 [7] = biological target: T2, human CD3; test: FACS binding, Jurkat cells; Fig 1B
cynomolgus CD3 [8] = biological target: T1, cynomolgus CD3; test: FACS binding, HSC-F cells; Fig 2B

T2 sequence (P07766 22-207): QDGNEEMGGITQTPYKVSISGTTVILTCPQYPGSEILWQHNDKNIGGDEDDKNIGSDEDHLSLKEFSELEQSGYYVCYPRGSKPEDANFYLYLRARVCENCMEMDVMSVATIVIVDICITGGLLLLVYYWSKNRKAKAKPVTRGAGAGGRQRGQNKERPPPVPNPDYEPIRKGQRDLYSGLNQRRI

Row | EC50 (cynomolgus CD3 [3]) | EC50 (human CD3 [4]) | EC50 (cynomolgus CD3 [5]) | EC50 (human CD3 [6]) | Binder | further results
1 |  |  |  |  | bsIgG1-huCD3-H3L3×HER2-LFLEDA (bispecific antibody, V domains shown) VH 1: EVKLVESGGGLVKPGRSLRLSCAASGFTFNTYAMNWVRQAPGKGLEWVARIRSKYNNYATYYADSVKDRFTISRDDSKSILYLQMNSLKTEDTAMYYCVRHGNFGNSYVSWFAYWGQGTLVTVSS VL 1: QAVVTQEPSFSVSPGGTVTLTCRSSTGAVTTSNYANWVQQTPGQAFRGLIGGTNKRAPGVPARFSGSILGNKAALTITGAQADDESDYYCALWYSNLWVFGGGTKLTVL VH 2: QVQLVQSGAEVKKPGASVKVSCKASGYTFTNYGISWVRQAPGQGLEWMGWLSAYSGNTIYAQKLQGRVTMTTDTSTTTAYMELRSLRSDDTAVYYCARDRIVVRPDYFDYWGQGTLVTVSS VL 2: EIVLTQSPATLSLSPGERATLSCRASQSVSSYLAWYQQKPGQAPRLLIYDASNRATGIPARFSGSGSGTDFTLTISSLEPEDFAVYYCQQRSNWPRTFGQGTKVEIK | EC50 (human CD3 [1]): 0.74 µg/mL; EC50 (cynomolgus CD3 [2]): 0.26 µg/mL
2 | 0.26 µg/mL | 0.05 µg/mL |  |  | IgG1-huCD3-H4L1 (antibody, V domains shown) VH: EVKLVESGGGLVKPGRSLRLSCAASGFTFNTYAMNWVRQAPGKGLEWVARIRSKYNNYATYYADSVKDRFTISRDDSKSILYLQMNSLKTEDTAMYYCVRHGNFGNSYVSWFAYWGQGTMVTVSS VL: not shown | 
3 |  |  | 0.03 µg/mL |  | IgG1-huCD3-H1L1-LFLEDA (antibody, V domains shown) VH: EVKLVESGGGLVQPGGSLRLSCAASGFTFNTYAMNWVRQAPGKGLEWVARIRSKYNNYATYYADSVKDRFTISRDDSKSSLYLQMNNLKTEDTAMYYCVRHGNFGNSYVSWFAYWGQGTLVTVSS VL: not shown | 
4 |  |  |  |  | bsIgG1-huCD3-H1L1×HER2-LFLEDA (bispecific antibody, V domains shown) VH 1: EVKLVESGGGLVQPGGSLRLSCAASGFTFNTYAMNWVRQAPGKGLEWVARIRSKYNNYATYYADSVKDRFTISRDDSKSSLYLQMNNLKTEDTAMYYCVRHGNFGNSYVSWFAYWGQGTLVTVSS VL 1: not shown VH 2: QVQLVQSGAEVKKPGASVKVSCKASGYTFTNYGISWVRQAPGQGLEWMGWLSAYSGNTIYAQKLQGRVTMTTDTSTTTAYMELRSLRSDDTAVYYCARDRIVVRPDYFDYWGQGTLVTVSS VL 2: EIVLTQSPATLSLSPGERATLSCRASQSVSSYLAWYQQKPGQAPRLLIYDASNRATGIPARFSGSGSGTDFTLTISSLEPEDFAVYYCQQRSNWPRTFGQGTKVEIK | EC50 (cynomolgus CD3 [2]): 0.32 µg/mL
5 | 0.11 µg/mL | 0.02 µg/mL |  |  | IgG1-huCD3-H3L3 (antibody, V domains shown) VH: EVKLVESGGGLVKPGRSLRLSCAASGFTFNTYAMNWVRQAPGKGLEWVARIRSKYNNYATYYADSVKDRFTISRDDSKSILYLQMNSLKTEDTAMYYCVRHGNFGNSYVSWFAYWGQGTLVTVSS VL: QAVVTQEPSFSVSPGGTVTLTCRSSTGAVTTSNYANWVQQTPGQAFRGLIGGTNKRAPGVPARFSGSILGNKAALTITGAQADDESDYYCALWYSNLWVFGGGTKLTVL | 
6 |  |  | 0.02 µg/mL | 0.08 µg/mL | IgG1-huCD3-H4L3-LFLEDA (antibody, V domains shown) VH: EVKLVESGGGLVKPGRSLRLSCAASGFTFNTYAMNWVRQAPGKGLEWVARIRSKYNNYATYYADSVKDRFTISRDDSKSILYLQMNSLKTEDTAMYYCVRHGNFGNSYVSWFAYWGQGTMVTVSS VL: QAVVTQEPSFSVSPGGTVTLTCRSSTGAVTTSNYANWVQQTPGQAFRGLIGGTNKRAPGVPARFSGSILGNKAALTITGAQADDESDYYCALWYSNLWVFGGGTKLTVL | 
7 |  |  | 0.03 µg/mL | 0.06 µg/mL | IgG1-huCD3-H4L1-LFLEDA (antibody, V domains shown) VH: EVKLVESGGGLVKPGRSLRLSCAASGFTFNTYAMNWVRQAPGKGLEWVARIRSKYNNYATYYADSVKDRFTISRDDSKSILYLQMNSLKTEDTAMYYCVRHGNFGNSYVSWFAYWGQGTMVTVSS VL: not shown | 
8 | 0.28 µg/mL | 0.06 µg/mL |  |  | IgG1-huCD3-H1L3 (antibody, V domains shown) VH: EVKLVESGGGLVQPGGSLRLSCAASGFTFNTYAMNWVRQAPGKGLEWVARIRSKYNNYATYYADSVKDRFTISRDDSKSSLYLQMNNLKTEDTAMYYCVRHGNFGNSYVSWFAYWGQGTLVTVSS VL: QAVVTQEPSFSVSPGGTVTLTCRSSTGAVTTSNYANWVQQTPGQAFRGLIGGTNKRAPGVPARFSGSILGNKAALTITGAQADDESDYYCALWYSNLWVFGGGTKLTVL | 
9 | 0.31 µg/mL | 0.08 µg/mL |  |  | IgG1-huCD3-H1L2 (antibody, V domains shown) VH: EVKLVESGGGLVQPGGSLRLSCAASGFTFNTYAMNWVRQAPGKGLEWVARIRSKYNNYATYYADSVKDRFTISRDDSKSSLYLQMNNLKTEDTAMYYCVRHGNFGNSYVSWFAYWGQGTLVTVSS VL: QAVVTQEPSFSVSPGGTVTLTCRSSTGAVTTSNYANWVQQTPGQAFRGLIGGTNKRAPGVPARFSGSILGNKAALTITGAQADDESIYFCALWYSNLWVFGGGTKLTVL | 
10 |  |  | 0.03 µg/mL | 0.08 µg/mL | IgG1-huCD3-H3L3-LFLEDA (antibody, V domains shown) VH: EVKLVESGGGLVKPGRSLRLSCAASGFTFNTYAMNWVRQAPGKGLEWVARIRSKYNNYATYYADSVKDRFTISRDDSKSILYLQMNSLKTEDTAMYYCVRHGNFGNSYVSWFAYWGQGTLVTVSS VL: QAVVTQEPSFSVSPGGTVTLTCRSSTGAVTTSNYANWVQQTPGQAFRGLIGGTNKRAPGVPARFSGSILGNKAALTITGAQADDESDYYCALWYSNLWVFGGGTKLTVL | 
11 | 0.19 µg/mL | 0.04 µg/mL | 0.04 µg/mL | 0.1 µg/mL | IgG1-huCD3-H3L1-LFLEDA (antibody, V domains shown) VH: EVKLVESGGGLVKPGRSLRLSCAASGFTFNTYAMNWVRQAPGKGLEWVARIRSKYNNYATYYADSVKDRFTISRDDSKSILYLQMNSLKTEDTAMYYCVRHGNFGNSYVSWFAYWGQGTLVTVSS VL: not shown | EC50 (human CD3 [7]): 0.04 µg/mL; EC50 (cynomolgus CD3 [8]): 0.3 µg/mL
12 |  |  |  |  | bsIgG1-huCD3-H4L1×HER2-LFLEDA (bispecific antibody, V domains shown) VH 1: EVKLVESGGGLVKPGRSLRLSCAASGFTFNTYAMNWVRQAPGKGLEWVARIRSKYNNYATYYADSVKDRFTISRDDSKSILYLQMNSLKTEDTAMYYCVRHGNFGNSYVSWFAYWGQGTMVTVSS VL 1: not shown VH 2: QVQLVQSGAEVKKPGASVKVSCKASGYTFTNYGISWVRQAPGQGLEWMGWLSAYSGNTIYAQKLQGRVTMTTDTSTTTAYMELRSLRSDDTAVYYCARDRIVVRPDYFDYWGQGTLVTVSS VL 2: EIVLTQSPATLSLSPGERATLSCRASQSVSSYLAWYQQKPGQAPRLLIYDASNRATGIPARFSGSGSGTDFTLTISSLEPEDFAVYYCQQRSNWPRTFGQGTKVEIK | EC50 (human CD3 [1]): 0.62 µg/mL; EC50 (cynomolgus CD3 [2]): 0.36 µg/mL
13 | 0.37 µg/mL |  |  |  | IgG1-huCD3-H1L1 (antibody, V domains shown) VH: EVKLVESGGGLVQPGGSLRLSCAASGFTFNTYAMNWVRQAPGKGLEWVARIRSKYNNYATYYADSVKDRFTISRDDSKSSLYLQMNNLKTEDTAMYYCVRHGNFGNSYVSWFAYWGQGTLVTVSS VL: not shown | 
14 |  |  |  |  | bsIgG1 CD3×HER2 (bispecific antibody, V domains shown) VH 1: EVKLLESGGGLVQPKGSLKLSCAASGFTFNTYAMNWVRQAPGKGLEWVARIRSKYNNYATYYADSVKDRFTISRDDSQSILYLQMNNLKTEDTAMYYCVRHGNFGNSYVSWFAYWGQGTLVTVSA VL 1: QAVVTQESALTTSPGETVTLTCRSSTGAVTTSNYANWVQEKPDHLFTGLIGGTNKRAPGVPARFSGSLIGDKAALTITGAQTEDEAIYFCALWYSNLWVFGGGTKLTVL VH 2: QVQLVQSGAEVKKPGASVKVSCKASGYTFTNYGISWVRQAPGQGLEWMGWLSAYSGNTIYAQKLQGRVTMTTDTSTTTAYMELRSLRSDDTAVYYCARDRIVVRPDYFDYWGQGTLVTVSS VL 2: EIVLTQSPATLSLSPGERATLSCRASQSVSSYLAWYQQKPGQAPRLLIYDASNRATGIPARFSGSGSGTDFTLTISSLEPEDFAVYYCQQRSNWPRTFGQGTKVEIK | EC50 (human CD3 [7]): 0.68 µg/mL
15 |  |  | 0.03 µg/mL | 0.11 µg/mL | IgG1-huCD3-H1L3-LFLEDA (antibody, V domains shown) VH: EVKLVESGGGLVQPGGSLRLSCAASGFTFNTYAMNWVRQAPGKGLEWVARIRSKYNNYATYYADSVKDRFTISRDDSKSSLYLQMNNLKTEDTAMYYCVRHGNFGNSYVSWFAYWGQGTLVTVSS VL: QAVVTQEPSFSVSPGGTVTLTCRSSTGAVTTSNYANWVQQTPGQAFRGLIGGTNKRAPGVPARFSGSILGNKAALTITGAQADDESDYYCALWYSNLWVFGGGTKLTVL | 
16 |  |  |  |  | bsIgG1-huCD3-H1L3×HER2-LFLEDA (bispecific antibody, V domains shown) VH 1: EVKLVESGGGLVQPGGSLRLSCAASGFTFNTYAMNWVRQAPGKGLEWVARIRSKYNNYATYYADSVKDRFTISRDDSKSSLYLQMNNLKTEDTAMYYCVRHGNFGNSYVSWFAYWGQGTLVTVSS VL 1: QAVVTQEPSFSVSPGGTVTLTCRSSTGAVTTSNYANWVQQTPGQAFRGLIGGTNKRAPGVPARFSGSILGNKAALTITGAQADDESDYYCALWYSNLWVFGGGTKLTVL VH 2: QVQLVQSGAEVKKPGASVKVSCKASGYTFTNYGISWVRQAPGQGLEWMGWLSAYSGNTIYAQKLQGRVTMTTDTSTTTAYMELRSLRSDDTAVYYCARDRIVVRPDYFDYWGQGTLVTVSS VL 2: EIVLTQSPATLSLSPGERATLSCRASQSVSSYLAWYQQKPGQAPRLLIYDASNRATGIPARFSGSGSGTDFTLTISSLEPEDFAVYYCQQRSNWPRTFGQGTKVEIK | EC50 (human CD3 [1]): 0.58 µg/mL; EC50 (cynomolgus CD3 [2]): 0.25 µg/mL

Source: patent US20160333095A1 (published 2016)
